Results published in patent publication US20110301228.

Molecular target: native rat tail collagen type I (BD Biosciences), P02454
Sequence (P02454 152-1207, chain 1 of 2): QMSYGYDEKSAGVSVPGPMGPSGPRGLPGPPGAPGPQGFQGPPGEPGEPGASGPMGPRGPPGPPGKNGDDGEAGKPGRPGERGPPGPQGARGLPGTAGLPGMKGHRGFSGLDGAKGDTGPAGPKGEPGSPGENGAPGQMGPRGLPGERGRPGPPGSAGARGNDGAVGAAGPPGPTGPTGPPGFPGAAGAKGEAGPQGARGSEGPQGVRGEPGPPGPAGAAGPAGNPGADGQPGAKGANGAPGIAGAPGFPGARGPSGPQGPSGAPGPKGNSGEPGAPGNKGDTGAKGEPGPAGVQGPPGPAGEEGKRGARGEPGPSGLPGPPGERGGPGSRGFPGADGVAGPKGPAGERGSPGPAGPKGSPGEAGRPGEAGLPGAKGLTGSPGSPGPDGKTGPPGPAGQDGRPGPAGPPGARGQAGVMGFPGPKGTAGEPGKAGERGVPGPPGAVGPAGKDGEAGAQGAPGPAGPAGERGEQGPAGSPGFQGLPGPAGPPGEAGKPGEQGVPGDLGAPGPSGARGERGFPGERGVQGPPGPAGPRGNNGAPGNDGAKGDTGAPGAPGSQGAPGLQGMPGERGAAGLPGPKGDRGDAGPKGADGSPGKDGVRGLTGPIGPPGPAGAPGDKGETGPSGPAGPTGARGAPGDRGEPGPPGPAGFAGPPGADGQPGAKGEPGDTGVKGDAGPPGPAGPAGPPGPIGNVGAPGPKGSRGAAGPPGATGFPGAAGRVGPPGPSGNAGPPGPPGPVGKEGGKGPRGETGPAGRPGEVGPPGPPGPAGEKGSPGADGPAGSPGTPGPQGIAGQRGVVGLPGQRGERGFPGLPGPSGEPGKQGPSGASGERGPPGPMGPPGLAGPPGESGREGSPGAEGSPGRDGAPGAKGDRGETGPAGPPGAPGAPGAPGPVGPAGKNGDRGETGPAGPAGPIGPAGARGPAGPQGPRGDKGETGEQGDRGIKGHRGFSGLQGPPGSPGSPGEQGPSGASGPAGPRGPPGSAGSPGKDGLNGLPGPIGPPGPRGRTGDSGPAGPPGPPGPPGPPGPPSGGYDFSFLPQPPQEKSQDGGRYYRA
Sequence (chain, as listed by the source, chain 2 of 2): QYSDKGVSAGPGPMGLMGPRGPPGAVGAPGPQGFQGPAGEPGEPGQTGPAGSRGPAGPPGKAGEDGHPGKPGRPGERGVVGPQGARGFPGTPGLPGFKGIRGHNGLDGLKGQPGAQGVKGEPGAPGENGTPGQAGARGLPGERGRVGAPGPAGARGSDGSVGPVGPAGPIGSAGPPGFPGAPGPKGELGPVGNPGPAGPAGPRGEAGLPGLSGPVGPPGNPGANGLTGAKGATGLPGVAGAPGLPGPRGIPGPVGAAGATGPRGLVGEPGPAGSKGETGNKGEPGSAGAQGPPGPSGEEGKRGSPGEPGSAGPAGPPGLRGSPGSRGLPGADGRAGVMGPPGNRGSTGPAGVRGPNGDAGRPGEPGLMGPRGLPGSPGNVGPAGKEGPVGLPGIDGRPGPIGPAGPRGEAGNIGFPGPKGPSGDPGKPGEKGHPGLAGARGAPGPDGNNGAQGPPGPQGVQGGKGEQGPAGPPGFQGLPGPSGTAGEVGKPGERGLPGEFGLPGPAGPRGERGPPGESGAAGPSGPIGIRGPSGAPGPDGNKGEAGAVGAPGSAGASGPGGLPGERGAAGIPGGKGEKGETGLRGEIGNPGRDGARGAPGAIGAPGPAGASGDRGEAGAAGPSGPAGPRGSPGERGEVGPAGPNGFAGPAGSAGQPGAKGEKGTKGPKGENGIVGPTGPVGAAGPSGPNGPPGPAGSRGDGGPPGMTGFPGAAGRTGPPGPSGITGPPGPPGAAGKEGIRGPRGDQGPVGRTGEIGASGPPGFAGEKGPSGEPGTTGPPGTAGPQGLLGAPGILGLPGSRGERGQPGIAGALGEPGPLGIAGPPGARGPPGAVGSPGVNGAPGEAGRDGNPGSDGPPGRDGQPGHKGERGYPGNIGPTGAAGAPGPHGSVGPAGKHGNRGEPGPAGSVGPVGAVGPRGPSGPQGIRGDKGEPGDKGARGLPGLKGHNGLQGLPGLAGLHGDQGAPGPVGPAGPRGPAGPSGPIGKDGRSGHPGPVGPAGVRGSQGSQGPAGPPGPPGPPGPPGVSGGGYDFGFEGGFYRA

B1: recombinant human MMP1 (wild-type), secreted by AdhGRE.MMP1-infected HTM cells and activated with APMA (active form, 41 kDa) (protein)
chain: FVLTEGNPRWEQTHLTYRIENYTPDLPRADVDHAIEKAFQLWSNVTPLTFTKVSEGQADIMISFVRGDHRDNSPFDGPGGNLAHAFQPGPGIGGDAHFDEDERWTNNFREYNLHRVAAHELGHSLGLSHSTDIGALMYPSYTFSGDVQLAQDDIDGIQAIYGRSQNPVQPIGPQTPKACDSKLTFDAITTIRGEVMFFKDRFYMRTNPFYPEVELNFISVFWPQLPNGLEAAYEFADRDEVRFFKGNKYWAVQGQNVLHGYPKDIYSSFGFPRTVKHIDAALSEENTGKTYFFVANKYWRYDEYKRSMDPGYPKMIAHDFPGIGHKVDAVFMKDGFFYFFHGTRQYKFDPKTKRILTLQKANSWFNCRKN
digestion of native rat tail collagen type I (PAGE gel, Coomassie stain): digested native collagen type I into smaller fragments
